Columns and labels:
His6-p37AUF1(30-287) = His6-p37AUF1(30-287) (human, UniProt Q14103-4 30-287); test: fluorescence anisotropy; Anisotropy: 10 mM Tris-HCl pH 8.0, 100 mM KCl (50 mM for Fl-ARE2), 0.5 mM EDTA, 0.1 ug/ul acetylated BSA, 1 ug/ul heparin, 2 mM DTT, 25 C, RNA 0.2-0.4 nM; EMSA: same with 100 mM KCl, 10% glycerol, 1 nM RNA, on ice, UV crosslinked; settings: protein: recombinant; chain copies: 2; label: 3' fluorescein
His6-p37AUF1(69-239) = His6-p37AUF1(69-239) (human, UniProt Q14103-4 69-239); test: as above; settings: protein: recombinant; label: 3' fluorescein
p37AUF1 (EK-cleaved) = p37AUF1 (EK-cleaved) (human, UniProt Q14103-4 1-287); test: as above; settings: protein: recombinant; tags: His6 removed by enterokinase; chain copies: 2; label: 3' fluorescein
His6-p37AUF1(1-239) [1] = target: T1, His6-p37AUF1(1-239) (human, UniProt Q14103-4 1-239); test: as above; settings: protein: recombinant; chain copies: 2; label: 3' fluorescein
His6-p37AUF1(78-239) [2] = target: T2, His6-p37AUF1(78-239) (human, UniProt Q14103-4 78-239); test: as above; settings: protein: recombinant; for Kd: label: 3' fluorescein
His6-p37AUF1 W250F = His6-p37AUF1 W250F (human, UniProt Q14103-4 1-287, W250F); test: as above; settings: protein: recombinant; tags: N-term His6; chain copies: 2; label: 3' fluorescein
His6-p37AUF1(Δ69-77) = His6-p37AUF1(Δ69-77) (human, UniProt Q14103-4 1-287, del69-77); test: as above; settings: protein: recombinant; chain copies: 2; label: 3' fluorescein
His6-p37AUF1 wt [3] = target: T3, His6-p37AUF1 wt (human, UniProt Q14103-4 1-287); test: as above; settings: protein: recombinant, chain copies: 2; for Kd: label: 3' fluorescein
His6-p37AUF1 W87F [4] = target: T4, His6-p37AUF1 W87F (human, UniProt Q14103-4 1-287, W87F); test: Trp fluorescence and iodide quenching; 2 uM each; KSV 0.60 vs 6.59 M-1 without RNA; saturates near 1:1; Anisotropy: 10 mM Tris-HCl pH 8.0, 100 mM KCl (50 mM for Fl-ARE2), 0.5 mM EDTA, 0.1 ug/ul acetylated BSA, 1 ug/ul heparin, 2 mM DTT, 25 C, RNA 0.2-0.4 nM; EMSA: same with 100 mM KCl, 10% glycerol, 1 nM RNA, on ice, UV crosslinked; settings: protein: recombinant; tags: N-term His6; chain copies: 2
His6-p37AUF1 W87F [5] = target: T4, His6-p37AUF1 W87F; test: Trp fluorescence and iodide quenching; 2 uM each; KSV 3.88 M-1; Anisotropy: 10 mM Tris-HCl pH 8.0, 100 mM KCl (50 mM for Fl-ARE2), 0.5 mM EDTA, 0.1 ug/ul acetylated BSA, 1 ug/ul heparin, 2 mM DTT, 25 C, RNA 0.2-0.4 nM; EMSA: same with 100 mM KCl, 10% glycerol, 1 nM RNA, on ice, UV crosslinked; settings: protein: recombinant; tags: N-term His6; chain copies: 2
His6-p37AUF1(78-239) [6] = target: T2, His6-p37AUF1(78-239); test: EMSA (UV-crosslinked); Anisotropy: 10 mM Tris-HCl pH 8.0, 100 mM KCl (50 mM for Fl-ARE2), 0.5 mM EDTA, 0.1 ug/ul acetylated BSA, 1 ug/ul heparin, 2 mM DTT, 25 C, RNA 0.2-0.4 nM; EMSA: same with 100 mM KCl, 10% glycerol, 1 nM RNA, on ice, UV crosslinked; settings: protein: recombinant; label: biotin
His6-p37AUF1 wt [7] = target: T3, His6-p37AUF1 wt; test: as above; settings: protein: recombinant; chain copies: 2; label: biotin
His6-p37AUF1(69-287) = His6-p37AUF1(69-287) (human, UniProt Q14103-4 69-287); test: fluorescence anisotropy; Anisotropy: 10 mM Tris-HCl pH 8.0, 100 mM KCl (50 mM for Fl-ARE2), 0.5 mM EDTA, 0.1 ug/ul acetylated BSA, 1 ug/ul heparin, 2 mM DTT, 25 C, RNA 0.2-0.4 nM; EMSA: same with 100 mM KCl, 10% glycerol, 1 nM RNA, on ice, UV crosslinked; settings: protein: recombinant; label: 3' fluorescein
His6-p37AUF1(78-287) = His6-p37AUF1(78-287) (human, UniProt Q14103-4 78-287); test: as above; settings: protein: recombinant; chain copies: 2; label: 3' fluorescein
His6-p37AUF1(1-239) [8] = target: T1, His6-p37AUF1(1-239); test: fluorescence anisotropy; first site (Kd1), 50 mM KCl; Anisotropy: 10 mM Tris-HCl pH 8.0, 100 mM KCl (50 mM for Fl-ARE2), 0.5 mM EDTA, 0.1 ug/ul acetylated BSA, 1 ug/ul heparin, 2 mM DTT, 25 C, RNA 0.2-0.4 nM; EMSA: same with 100 mM KCl, 10% glycerol, 1 nM RNA, on ice, UV crosslinked; settings: protein: recombinant; chain copies: 2; label: 5' fluorescein
His6-p37AUF1(78-239) [9] = target: T2, His6-p37AUF1(78-239); test: as above; settings: protein: recombinant; label: 5' fluorescein
His6-p37AUF1 wt [10] = target: T3, His6-p37AUF1 wt; test: as above; settings: protein: recombinant; chain copies: 2; label: 5' fluorescein

T2 sequence (Q14103 other isoform, or with tags, fused parts or gaps): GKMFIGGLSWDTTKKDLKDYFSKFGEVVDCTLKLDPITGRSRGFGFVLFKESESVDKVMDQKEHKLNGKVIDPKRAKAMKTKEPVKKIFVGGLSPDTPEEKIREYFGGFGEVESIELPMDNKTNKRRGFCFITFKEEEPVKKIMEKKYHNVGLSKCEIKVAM
T1 sequence (Q14103 other isoform, or with tags, fused parts or gaps): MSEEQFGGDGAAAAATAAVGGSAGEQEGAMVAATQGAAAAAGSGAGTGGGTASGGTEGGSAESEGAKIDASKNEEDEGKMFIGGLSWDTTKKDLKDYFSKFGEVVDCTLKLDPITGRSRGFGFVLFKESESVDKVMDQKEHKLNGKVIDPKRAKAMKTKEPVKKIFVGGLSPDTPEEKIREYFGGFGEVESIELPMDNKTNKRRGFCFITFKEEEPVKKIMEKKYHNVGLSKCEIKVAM
T3 sequence (Q14103 other isoform, or with tags, fused parts or gaps): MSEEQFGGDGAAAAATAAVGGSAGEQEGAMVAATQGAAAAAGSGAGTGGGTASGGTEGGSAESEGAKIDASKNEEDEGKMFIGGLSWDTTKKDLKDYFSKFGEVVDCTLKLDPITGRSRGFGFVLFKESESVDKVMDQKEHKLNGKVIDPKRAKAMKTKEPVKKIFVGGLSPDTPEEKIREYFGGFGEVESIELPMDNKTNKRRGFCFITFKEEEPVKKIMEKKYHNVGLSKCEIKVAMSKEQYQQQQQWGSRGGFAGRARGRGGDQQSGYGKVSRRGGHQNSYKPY
T4 sequence (Q14103 other isoform, or with tags, fused parts or gaps W87F | W87F W87F): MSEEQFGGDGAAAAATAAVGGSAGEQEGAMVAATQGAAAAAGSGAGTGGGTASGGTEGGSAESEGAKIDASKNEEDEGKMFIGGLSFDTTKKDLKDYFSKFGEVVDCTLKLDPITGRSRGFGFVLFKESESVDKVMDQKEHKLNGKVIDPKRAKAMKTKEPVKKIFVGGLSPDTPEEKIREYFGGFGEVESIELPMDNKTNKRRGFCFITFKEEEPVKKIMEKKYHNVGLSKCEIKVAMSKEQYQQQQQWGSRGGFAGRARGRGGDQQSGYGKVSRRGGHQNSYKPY
Sequence of His6-p37AUF1(69-239) (Q14103 other isoform, or with tags, fused parts or gaps): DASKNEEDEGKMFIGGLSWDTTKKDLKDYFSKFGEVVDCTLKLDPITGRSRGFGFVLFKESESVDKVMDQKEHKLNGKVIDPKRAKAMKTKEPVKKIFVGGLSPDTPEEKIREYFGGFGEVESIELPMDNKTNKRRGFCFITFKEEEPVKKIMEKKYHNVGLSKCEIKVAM
Sequence of His6-p37AUF1(78-287) (Q14103 other isoform, or with tags, fused parts or gaps): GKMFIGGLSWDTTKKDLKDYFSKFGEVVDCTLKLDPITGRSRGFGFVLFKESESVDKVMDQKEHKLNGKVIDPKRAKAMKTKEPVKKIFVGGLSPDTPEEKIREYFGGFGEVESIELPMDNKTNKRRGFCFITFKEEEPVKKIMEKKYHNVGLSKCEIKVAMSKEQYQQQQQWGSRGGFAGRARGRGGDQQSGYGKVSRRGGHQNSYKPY
Sequence of His6-p37AUF1(30-287) (Q14103 other isoform, or with tags, fused parts or gaps): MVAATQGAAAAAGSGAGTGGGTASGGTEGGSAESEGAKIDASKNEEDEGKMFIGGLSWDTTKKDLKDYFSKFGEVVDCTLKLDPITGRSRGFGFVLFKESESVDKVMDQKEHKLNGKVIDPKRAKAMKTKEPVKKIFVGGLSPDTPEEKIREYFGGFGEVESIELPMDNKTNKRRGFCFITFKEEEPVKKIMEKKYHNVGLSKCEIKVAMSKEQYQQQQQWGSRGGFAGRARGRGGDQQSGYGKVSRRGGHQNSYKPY
Sequence of His6-p37AUF1(Δ69-77) (Q14103 other isoform, or with tags, fused parts or gaps del69-77 | mutant): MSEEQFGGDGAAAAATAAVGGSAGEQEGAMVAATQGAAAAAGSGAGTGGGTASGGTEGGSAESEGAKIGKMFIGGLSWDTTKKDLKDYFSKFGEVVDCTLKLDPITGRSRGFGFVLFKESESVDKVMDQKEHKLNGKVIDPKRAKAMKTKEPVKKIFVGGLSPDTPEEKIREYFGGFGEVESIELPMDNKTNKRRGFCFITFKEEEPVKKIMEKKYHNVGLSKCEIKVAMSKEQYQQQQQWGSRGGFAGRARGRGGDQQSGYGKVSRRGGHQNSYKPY
Sequence of His6-p37AUF1(69-287) (Q14103 other isoform, or with tags, fused parts or gaps): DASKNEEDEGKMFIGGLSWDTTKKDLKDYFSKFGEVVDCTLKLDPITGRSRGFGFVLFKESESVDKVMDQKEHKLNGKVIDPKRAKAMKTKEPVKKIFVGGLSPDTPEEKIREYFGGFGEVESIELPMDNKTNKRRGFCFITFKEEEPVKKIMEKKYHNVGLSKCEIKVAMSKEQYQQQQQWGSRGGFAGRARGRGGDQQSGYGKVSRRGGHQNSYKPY
Sequence of His6-p37AUF1 W250F (Q14103 other isoform, or with tags, fused parts or gaps W250F | W250F W250F): as the sequence (Q14103 other isoform, or with tags, fused parts or gaps W87F | W87F W87F) above, with F87W, W250F counted along it
Sequence of p37AUF1 (EK-cleaved) (Q14103 other isoform, or with tags, fused parts or gaps): as the sequence (Q14103 other isoform, or with tags, fused parts or gaps W87F | W87F W87F) above, with F87W counted along it

CCCCUGGCUCACAAAUACCUUAUUUAUUUAUUUAG (ssRNA) [ARE1-Fl]
Kd (His6-p37AUF1(30-287)): 27 ± 1.4 nM | Kd (His6-p37AUF1(69-239)): 527 ± 54 nM | Kd (p37AUF1 (EK-cleaved)): 15 ± 2 nM | Kd (His6-p37AUF1(1-239) [1]): 101 ± 8 nM | Kd (His6-p37AUF1(78-239) [2]): 505 ± 34 nM | Kd (His6-p37AUF1 W250F): 22 ± 2 nM | Kd (His6-p37AUF1(Δ69-77)): 89 ± 11 nM | Kd (His6-p37AUF1 wt [3]): 19 ± 3 nM

CCCCUGGCUCACAAAUACCUUAUUUAUUUAUUUAG (ssRNA) [ARE1 (unlabeled)]
binding result (His6-p37AUF1 W87F [4]): binds

UUAUUUAUUUAUUUAG (ssRNA) [ARE15-G (unlabeled)]
binding result (His6-p37AUF1 W87F [5]): binds

UGGCCAAUGCCCUGGCUCACAAAUACCACUG (ssRNA) [Fl-Rβ]
binding result (His6-p37AUF1(78-239) [2]; label: 5' fluorescein): no binding | binding result (His6-p37AUF1 wt [3]; label: 5' fluorescein): no binding

UGGCCAAUGCCCUGGCUCACAAAUACCACUG (ssRNA) [B-Rβ]
binding result (His6-p37AUF1(78-239) [6]): no binding | binding result (His6-p37AUF1 wt [7]): no binding

UUAUUUAUUUAUUUAG (ssRNA) [ARE15-G-Fl]
Kd (His6-p37AUF1(69-287)): 467 ± 33 nM | Kd (His6-p37AUF1(78-287)): 1090 ± 69 nM | Kd (His6-p37AUF1(69-239)): 933 ± 90 nM | Kd (His6-p37AUF1(1-239) [1]): 176 ± 9 nM | Kd (His6-p37AUF1(78-239) [2]): 796 ± 103 nM | Kd (His6-p37AUF1 wt [3]): 110 ± 5 nM

GUGAUUAUUUAUUAUUUAUUUAUUAUUUAUUUAUUUAG (ssRNA) [Fl-ARE2]
Kd (His6-p37AUF1(1-239) [8]): 156 ± 7 nM | Kd (His6-p37AUF1(78-239) [9]): 853 ± 48 nM | Kd (His6-p37AUF1 wt [10]): 16 ± 3 nM

Reference: paper PMC12147176, “Unstructured protein domains stabilize RNA binding and mediate RNA folding by AUF1”
